Results reported in the supplement of paper PMC9170038.

Tested on: MS2 coat protein
Test: apparent KD of MS2 coat protein; higher = weaker reporter binding
Details: Eterna round: R107
Summary of the method: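 Designed RNA switches were made by on-chip transcription from Illumina sequencing clusters and then titrated with SNAP-549-labelled MS2 coat protein. Twofold steps ran from 0.7 or 1.5 nM to 3 µM, each lasting 0.8–1.5 h early and 10–20 min late, in 100 mM Tris-HCl pH 7.5, 80 mM KCl, 4 mM MgCl2, without or with constant ligand. Apparent KD is the per-design median of normalised cluster binding-curve fits.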

[1] = input ligand: theophylline 20 uM
[2] = input ligand: tryptophan 2.4 mM
[3] = input ligand: theophylline 2 mM

Sequence	apparent KD of MS2 coat protein (input ligand: arginine 13.2 mM) [nM]	apparent KD of MS2 coat protein [1] [nM]	apparent KD of MS2 coat protein [2] [nM]	apparent KD of MS2 coat protein [3] [nM]	apparent KD of MS2 coat protein (input ligand: none) [nM]
AUAGUCUAGAGUGAUACCAGACAACAUGAGGAUCACCCAUGUAGCAUAUGGUUAUCAUGAGUCCCUUGGCAGCACGCAUGUAUAG [JR_ExcTheophyB_Sub012]	13.4	19.9	13.2	–	–
AUAUGAAAGAGUGAUACCAGACUACAUGAGGAUCACCCAUGUGACAUUUAAAUAUCAUUUGUCCCUUGGCAGCACAUUAAGUACA [JR_Nu_ExcTheophyB_Sub021]	35.7	46.9	43	–	–
AUAUGAUCAUAUGAUACCAGAAAUGGUAUUCCUUUGUUUCUUACAUGAGGAUCACCCAUGUUCCCUUGGCAGCAUAUGAUCAUAU [ETHB #2]	159	221	238	–	–
AUAUGAUCAUGUGAUACCAGAAAUGGUAGUCCUCGCUGGAUUACAUGAGGAUCACCCAUGUUCCCUUGGCAGCAUAUGAUCAUAU [#02 Exclusion-TheophyllineB]	50.5	122	60.9	–	–
AUAUUACAUGUUAUUAUACGGUAUACUGAUACCAGUGUUUCUAUUCACCCUUGGCAGCAGCAACAUGAGGAUCACCCAUGUAUUA [JR_SSTheophyA_Sub018]	15.6	19	18	–	–
AUCUCGUUCAAUAUACCGCCUUGACUAGAUACCAGCAUGGACCCAUGCCCUUGGCAGCUGGACAUGAGGAUCACCCAUGUUUCAG [SSTheo A #27]	10.7	14.8	10.8	–	–
AUGCAGAGCACGGCCGCCACUCCAUGUAUACAUGAGGAUCACCCAUGUAAUUUGUAUUUUUUAUAGAGGACCGGGUGAAAUGCAA [JR_SSTryptoB_Sub011]	41.4	34.1	–	36.2	–
AUGGCGUUGGUGGAGCGGUGAAAUGGCGAUACCAGCGUGGAAACACGCCCUUGGCAGCGCCAAAACAUGAGGAUCACCCAUGUUA [Usti]	18.9	46	18.1	59.8	20.3
AUGUCAUUGGUGCAGCUGUUAAAUGGCGAUACCAGCGUGGAAACACGCCCUUGGCAGCGCCAAAACAUGAGGAUCACCCAUGUUA [Zlin]	23	54.6	27.1	–	–
AUGUCGUUGAAUACAGCGGCAUGGAGUGAUACCAGAAUGAUCAAAUUCCCUUGGCAGCAUGACAUGAGGAUCACCCAUGUUCGAU [SSTheo A #15]	34.3	61.3	77.5	–	–
AUGUUGGUCUGAAGGAGCGCGAUAACAUGAGGAUCACCCAUGUUAAAUGGUACAUGAUACUCGCAGGUAGGUCGCAGUACGACAA [Same State Arginine B GF 13]	18.6	29.7	25.1	32.2	20.7
AUUAAUAGUUGUGAUACCAGACGAACAUGAGGAUCACCCAUGUAACUUAAGAGUGUUGAUGUCCCUUGGCAGCACUGUUUAGUUA [JR_SSTheophyB_Sub015]	59.5	105	91.5	–	–
AUUAAUAGUUGUGAUACCAGACGAACAUGAGGAUCACCCAUGUAACUUUUAGGUGUUGUAGUCCCUUGGCAGCACUAUGUAGUUA [JR_SSTheophyB_Sub013]	31.1	44.5	32.6	–	–
AUUAUCAUGGUCAUAUAUAUAUCGUCAGAUACCAGACUAGAUAUAGUCCCUUGGCAGCUGUUACAUGAGGAUCACCCAUGUUAUA [JR_ExcTheophyA_Sub015]	43.5	80.1	88.7	–	–
CAACAAGUAACUGAUACCAGUGUACUGACAUGAGGAUCACCCAUGUUGGGUUUUGUUGUACACCCUUGGCAGCAGAAUCUUGUUG [AstrosExyTheB#21]	44.7	67.7	50	–	–
CACAUGAGGAUCACCCAUGUCUGAACUGAAGGAGCGCUAAACAAGGCAGGUAGGUCGCGGAAUCCUGUGUGCAUAUGCACACGGG [9.W]	30.6	27	21.5	26.1	18
CACAUGAGGAUCACCCAUGUCUGAACUGAAGGAGCGCUAAAUAAGGCAGGUAGGUCGCGGAAUCCUGUGUGCAUAUGCACACGGG [9.X]	20.7	30.5	19.8	28.9	22.6
CACUAUGAGGUCGAUACCAGUACUGAGUUGUACAUGAGGAUCACCCAUGUAAAUGUUCGCUACCCUUGGCAGCGAUAACAUUGCA [theeternabot_sameState_MS2_Theo_B_34]	73.8	331	246	–	–
CAUACUUUAGUAUGACGUGUGGGCAGUGAUACCAGAUACGAAAGUAUCCCUUGGCAGCACAACAUGAGGAUCACCCAUGUAAUUA [Theophylline A 1]	21.9	26.6	23.1	–	–

Sequence	apparent KD of MS2 coat protein (input ligand: arginine 13.2 mM) [nM]	apparent KD of MS2 coat protein [1] [nM]	apparent KD of MS2 coat protein [2] [nM]	apparent KD of MS2 coat protein [3] [nM]	apparent KD of MS2 coat protein (input ligand: none) [nM]
CAUUGUUAGACGGCCGCCACUUUUGGUUCGGAACGAUCGAUUGGACAUGAGGAUCACCCAUGUGGAAGGACCGGGUCUAAUCAAA [theeternabot_sameState_MS2_Trp_B_20]	83	328	134	265	165
CCAUACGUAACUGAUACCAGUGUACUGACAUGAGGAUCACCCAUGUUGGGUUUUGUUGUACACCCUUGGCAGCAGAAUCGUAUGG [AstrosExyTheB#19]	56.5	65.1	65.8	–	–
CCCGACGAGCCUGAGAUUAAGUAAGCGGAUACCAGAGAUAGGUAGCUCCCUUGGCAGCCGUGGACAUGAGGAUCACCCAUGUCAC [theeternabot_exclusion_MS2_Theo_A_22]	11.4	13.5	10.9	–	–
CCGCCCUACCGCGAUACCAGUACGGCAGUUAACAUGAGGAUCACCCAUGUGCAAACAUAAUACCCUUGGCAGCGCCUGAAUCCAU [theeternabot_sameState_MS2_Theo_B_12]	15.7	29.2	15.6	–	–
CGAACAUGAGGAUCACCCAUGUUAACCGAAGGAGCGGCGCAUAAGUCAGGUAGGUCGCGGUAGAUGAAAUAGAGCAGUGGUGACA [#01 Same State - Arginine A]	24.4	45	27	32	31.7
CGAUGAUCGAGGGAUACCAGAAAUGGUAUUCCUUUAUUUCUUACAUGAGGAUCACCCAUGUUCCCUUGGCAGCUUUUGAUCAUCG [ETHB #7]	60.5	86.1	74.6	–	–
CGCAACCAACAUGAGGAUCACCCAUGUGAAGGAGCGCCGAAUAAGGCAGGUAGGUCGCACAUGAAUAAAUCAUGAAGGAAGCGAA [XArg-A 12 NuPack]	20.5	43.8	31.5	51.2	36.8
CGCCGCGCGGGAAGGAGCGCGAUUACAUAACAUGAGGAUCACCCAUGUAAGAAAUUAUUCAUGCAGGUAGGUCGCCCGCGCGGCG [Same State Arginine B GF 5]	58.8	28.4	22.8	22.8	22.3
CGGUCGGUCGGCCGGUGAUUAUGGGAUGAAGGAGCGUGGGAAGCUACAGGUAGGUCGCAUCCGAACCAUGAGGAUCACCCAUGGU [SSArg A #23Alt-Ms2 Mod]	23.2	26.8	21.7	39.2	25.1
CGGUUUGUGAUGGAUACCAGCAGAGAGAAUGUUUAUCCUGACAUGAGGAUCACCCAUGUGUGCCCUUGGCAGCUGUUGUGGGCUG [8.Y]	42.4	102	55.8	–	–
CGUAGGAUCGUGGAUACCAGUACCGCCCACGACAUGAGGAUCACCCAUGUAGGUAAUCUUUACCCUUGGCAGCCAUUUUUUUCUG [theeternabot_sameState_MS2_Theo_B_14]	41	72.6	45.2	–	–
CGUAUUGGAAACAGUACGAGUGAUCCGGUCCGAGGACCGGUACGGCCGCCACUCGAAAAUAAAUAACAUGAGGAUCACCCAUGUA [Ex Tryptophan A 8]	19.5	21.6	–	19.8	–
CGUGAUCCCUGUGAUACCAGAAGUACAUGAGGAUCACCCAUGUCAAACACAAAACCAAGCUUCCCUUGGCAGCAUAGUCGUUAAG [Esmaenbiza]	67.1	240	224	–	–
CGUGCUAGGGCGGCCGCCACUGUGGCUACGGUACAUGAGGAUCACCCAUGUUUGUGGUUGAUCUACAGGACCGGGCCCUGGCACG [Radiaerdi]	131	442	280	756	107
CGUGGUGGGACGGAUACCAGCCACCGCGGCAACGCAACAUGAGGAUCACCCAUGUUGGGUGGCCCUUGGCAGCUGUGCUGCGACG [#1 Same State - Theophylline B Attempt #28 (HarryS)]	50.9	191	95.2	34.2	182
CUAUAUAUAAGAAGGAGCGUCGAAAAUGGGUAAACAUGAGGAUCACCCAUGUAAAGGGAACGACAGGUAGGUCGCUUAUAUAUAG [AstromonsSSArgB#5]	151	169	206	184	191
CUCAUCCACGCGGCCGCCACUAUAUUGUGGUGUGAGUGUGACGUAUUACAUGAGGAUCACCCAUGUAGGACCGGGCGUGGAUGAG [#06 Exclusion Tryptophan B]	30.9	51.3	–	50.2	–
CUCCCGUGAGCGGCCGCCACUGGAGGCCUCGCGCGACAUGAGGAUCACCCAUGUUGGCCCGGCCUCAGGACCGGGUUCGCGCGAG [Same State - Tryptophan B Attempt #5 (HarryS)]	7.94	12.4	7.41	9.89	9.67
